Measurements reported in IntAct's records for PubMed 24705590.

B1: Microcin J25 (Escherichia coli), Q9X2V7 (parent)
chain: MIKHFHFNKLSSGKKNNVPSPAKGVIQIKKSASQLTKGGAGHVPEYFVGIGTPISFYG

Variants of: B1
Conditions: with fhua_ecoli fhuA

Row | Variant | effect of a mutation on the interaction
1 | H42K | decreasing interaction strength
